Test results taken from article PMC4432624, “Prdx4 is a compartment-specific H2O2 sensor that regulates neurogenesis by controlling surface expression of GDE2” (Nature Communications, 2015).

Target: the molecule itself
Assay: western blot of Prdx4 dimers and monomers; primary motor neuron cultures treated with H2O2, Tempol or Edaravone; cells lysed with 100 mM maleimide; anti-mPrdx4 blot

B1: mouse Prdx4, endogenous in primary motor neuron cultures (enzyme, UniProt O08807 41-274, looked up)
chain: LESDERFRTRENECHFYAGGQVYPGEASRVSVADHSLHLSKAKISKPAPYWEGTAVINGEFKELKLTDYRGKYLVFFFYPLDFTFVCPTEIIAFGDRIEEFKSINTEVVACSVDSQFTHLAWINTPRRQGGLGPIRIPLLSDLNHQISKDYGVYLEDSGHTLRGLFIIDDKGVLRQITLNDLPVGRSVDETLRLVQAFQYTDKHGEVCPAGWKPGSETIIPDPAGKLKYFDKLN
notes: Peroxiredoxin 4 (Prdx4), mouse, endogenous; also called mPrdx4; source: endogenous, primary motor neuron cultures from E11.5 mouse spinal cords
stoichiometry N: 2
